Values belong to the molecule of their own block, whether it stands above or below them.
What was measured:
[1] = target: dephosphorylated IRAK4^FL (human) (UniProt Q9NWZ3); assay: SEC-MALS
[2] = target: dephosphorylated IRAK4^KD (human) (UniProt Q9NWZ3); assay: SEC-MALS
SEC-MALS = target: the molecule itself; assay: SEC-MALS
AUC = target: the molecule itself; assay: AUC

stoichiometry N [1]: 2
Molecule: dephosphorylated IRAK4^FL (from UniProt Q9NWZ3 1-460) (enzyme)

stoichiometry N [2]: 2
Molecule: dephosphorylated IRAK4^KD (from UniProt Q9NWZ3 186-454) (domain or fragment)

B1: IRAK4^KD-D311N (IRAK4 kinase domain, catalytically inactive, unphosphorylated) (domain or fragment, human, UniProt Q9NWZ3 164-460, looked up)
chain: RFHSFSFYELKNVTNNFDERPISVGGNKMGEGGFGVVYKGYVNNTTVAVKKLAAMVDITTEELKQQFDQEIKVMAKCQHENLVELLGFSSDGDDLCLVYVYMPNGSLLDRLSCLDGTPPLSWHMRCKIAQGAANGINFLHENHHIHRNIKSANILLDEAFTAKISDFGLARASEKFAQTVMTSRIVGTTAYMAPEALRGEITPKSDIYSFGVVLLEIITGLPAVDEHREPQLLLDIKEEIEDEEKTIEDYIDKKMNDADSTSVEAMYSVASQCLHEKKNKRPDIKKVQQLLQEMTAS
stoichiometry N (SEC-MALS): 2

B2: IRAK4^KD-D311N Y262T (domain or fragment, human, UniProt Q9NWZ3 164-460, looked up)
chain: RFHSFSFYELKNVTNNFDERPISVGGNKMGEGGFGVVYKGYVNNTTVAVKKLAAMVDITTEELKQQFDQEIKVMAKCQHENLVELLGFSSDGDDLCLVTVYMPNGSLLDRLSCLDGTPPLSWHMRCKIAQGAANGINFLHENHHIHRNIKSANILLDEAFTAKISDFGLARASEKFAQTVMTSRIVGTTAYMAPEALRGEITPKSDIYSFGVVLLEIITGLPAVDEHREPQLLLDIKEEIEDEEKTIEDYIDKKMNDADSTSVEAMYSVASQCLHEKKNKRPDIKKVQQLLQEMTAS
binding result (SEC-MALS): binds

B3: IRAK4^FL-D311N (full-length IRAK4, catalytically inactive, unphosphorylated) (enzyme, human, UniProt Q9NWZ3 1-460, looked up)
chain: MNKPITPSTYVRCLNVGLIRKLSDFIDPQEGWKKLAVAIKKPSGDDRYNQFHIRRFEALLQTGKSPTSELLFDWGTTNCTVGDLVDLLIQNEFFAPASLLLPDAVPKTANTLPSKEAITVQQKQMPFCDKDRTLMTPVQNLEQSYMPPDSSSPENKSLEVSDTRFHSFSFYELKNVTNNFDERPISVGGNKMGEGGFGVVYKGYVNNTTVAVKKLAAMVDITTEELKQQFDQEIKVMAKCQHENLVELLGFSSDGDDLCLVYVYMPNGSLLDRLSCLDGTPPLSWHMRCKIAQGAANGINFLHENHHIHRNIKSANILLDEAFTAKISDFGLARASEKFAQTVMTSRIVGTTAYMAPEALRGEITPKSDIYSFGVVLLEIITGLPAVDEHREPQLLLDIKEEIEDEEKTIEDYIDKKMNDADSTSVEAMYSVASQCLHEKKNKRPDIKKVQQLLQEMTAS
Kd (AUC): 2500 ± 400 nM
